From article PMC2133028
No end group written: not given here.

Target: GST-hCASK PDZ fusion protein (residues 489-572) (human)
Assay: pull-down

APTKEFYA-OH [COOH-terminal syndecan-2 peptide (APTKEFYA-COOH)]
IC50: 40 to 70 µM
